Results: the supplement of paper PMC7125110
± gives the standard error. For part of these data: Variants at the floor of the assay were thinned out.

B1: glmS ribozyme (parent)
chain: AUAAAAGCGCCAGAACUACAGAAAUGUAGUUGACGAGGAGGAGGUUUAUCGAAUUUUCGGCGGAUGCCUCCAAA

What was measured:
Details in all cases: with glucosamine-6-phosphate
glucosamine-6-phosphate [1] = variants of: B1; experiment: kcat; higher = faster cleavage; RNA array
How it was run: (§1)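 kcat and KM were obtained from weighted Michaelis–Menten fits across concentrations of kobs values. Those came from one- or two-exponential decay fits to per-tile medians normalised to baseline and to non-cleaving reference variants. The variants were barcoded ribozymes transcribed in situ by E. coli RNA polymerase on sequenced MiSeq chips and tracked through a hybridised Cy3 probe at 37 °C, with 40 μM to 10 mM glucosamine-6-phosphate in HEPES/KCl/Mg(OAc)2 buffer flowed in.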

glucosamine-6-phosphate [2] = variants of: B1; experiment: self-cleavage kobs at 160 uM GlcN6P; higher = faster cleavage; RNA array
How it was run: as §1

glucosamine-6-phosphate [3] = variants of: B1; experiment: self-cleavage kobs at 640 uM GlcN6P; higher = faster cleavage; RNA array
How it was run: as §1

glucosamine-6-phosphate [4] = variants of: B1; experiment: self-cleavage kobs at 2500 uM GlcN6P; higher = faster cleavage; RNA array
How it was run: as §1

glucosamine-6-phosphate [5] = variants of: B1; experiment: KM; higher = weaker cofactor use; RNA array
How it was run: as §1

glucosamine-6-phosphate [6] = variants of: B1; experiment: self-cleavage kobs at 10000 uM GlcN6P; higher = faster cleavage; RNA array
How it was run: as §1

glucosamine-6-phosphate [7] = variants of: B1; experiment: self-cleavage kobs at 40 uM GlcN6P; higher = faster cleavage; RNA array
How it was run: as §1

Variant | kcat (glucosamine-6-phosphate [1]) | self-cleavage kobs at 160 uM GlcN6P (glucosamine-6-phosphate [2]) | self-cleavage kobs at 640 uM GlcN6P (glucosamine-6-phosphate [3]) | self-cleavage kobs at 2500 uM GlcN6P (glucosamine-6-phosphate [4]) | KM (glucosamine-6-phosphate [5]) | self-cleavage kobs at 10000 uM GlcN6P (glucosamine-6-phosphate [6]) | self-cleavage kobs at 40 uM GlcN6P (glucosamine-6-phosphate [7])
C58G U69G | 4.22e-05 ± 1.4e-05 s⁻¹ | 6.03e-05 ± 1.5e-05 s⁻¹ | 5.7e-05 ± 1.7e-05 s⁻¹ | 5.1e-05 ± 1.6e-05 s⁻¹ |  |  | 
G13U A48U | < 1e-05 s⁻¹ | < 1e-05 s⁻¹ |  |  |  |  | 
A12C A15U C16U C70U | 0.000185 ± 1.8e-05 s⁻¹ | 5.1e-05 ± 1.8e-05 s⁻¹ | 9.57e-05 ± 2.2e-05 s⁻¹ | 0.000148 ± 5e-05 s⁻¹ | 514 ± 130 µM | 0.000188 ± 4.7e-05 s⁻¹ | 
A14C G29C | 0.00095 ± 0.00038 s⁻¹ |  | 6.24e-05 ± 1.5e-05 s⁻¹ | 0.000139 ± 2.5e-05 s⁻¹ |  | 0.000438 ± 6.2e-05 s⁻¹ | 
A36U C67G C68G C71U | 6.17e-05 ± 1.7e-05 s⁻¹ |  | 0.000121 ± 3e-05 s⁻¹ | 5.55e-05 ± 1.8e-05 s⁻¹ |  | 5.06e-05 ± 1.6e-05 s⁻¹ | 4.88e-05 ± 1.9e-05 s⁻¹
U69A C70A | 3.8e-05 ± 4.6e-06 s⁻¹ |  |  | 4.37e-05 ± 1.1e-05 s⁻¹ |  | 3.27e-05 ± 9.4e-06 s⁻¹ | 
G32A U65A | 0.000307 ± 0.0001 s⁻¹ |  | 5.66e-05 ± 1.2e-05 s⁻¹ | 0.000104 ± 1.4e-05 s⁻¹ |  | 0.000243 ± 4.4e-05 s⁻¹ | 
C11U A14U C16G | 0.000375 ± 7.9e-05 s⁻¹ |  |  | 6.42e-05 ± 2.5e-05 s⁻¹ |  | 0.000164 ± 3.4e-05 s⁻¹ | 
A12U G44A | 0.00153 ± 0.00047 s⁻¹ | 8.78e-05 ± 1.3e-05 s⁻¹ | 0.000437 ± 5.9e-05 s⁻¹ | 0.00103 ± 0.00013 s⁻¹ | 2200 ± 960 µM | 0.000973 ± 0.0002 s⁻¹ | 
U55A U69G | 6.88e-05 ± 8.3e-06 s⁻¹ | 8.26e-05 ± 1.6e-05 s⁻¹ | 6.99e-05 ± 1.2e-05 s⁻¹ | 7.05e-05 ± 8.6e-06 s⁻¹ |  | 5.04e-05 ± 1.3e-05 s⁻¹ | 
A6U C58U C70G | 1.51e-05 ± 4.3e-06 s⁻¹ |  |  |  |  |  | 
C11A A53G | 0.000202 ± 9.2e-06 s⁻¹ |  | 4.47e-05 ± 1e-05 s⁻¹ | 0.000112 ± 1.2e-05 s⁻¹ | 2130 ± 240 µM | 0.000164 ± 1.8e-05 s⁻¹ | 
C16G A53U | 0.00332 ± 0.00045 s⁻¹ | 0.000238 ± 6e-05 s⁻¹ | 0.000752 ± 0.00012 s⁻¹ | 0.00182 ± 0.0004 s⁻¹ | 1910 ± 380 µM | 0.00295 ± 0.00047 s⁻¹ | 8.15e-05 ± 1.4e-05 s⁻¹
G29U A53U | 0.00357 ± 0.00055 s⁻¹ | 0.000275 ± 4.9e-05 s⁻¹ | 0.00114 ± 0.00013 s⁻¹ | 0.00252 ± 0.00027 s⁻¹ | 1600 ± 360 µM | 0.00266 ± 0.00038 s⁻¹ | 8.45e-05 ± 1e-05 s⁻¹
U31G C58A | 0.000195 ± 2.1e-05 s⁻¹ |  | 5.23e-05 ± 1.2e-05 s⁻¹ | 9.47e-05 ± 1.4e-05 s⁻¹ | 2240 ± 600 µM | 0.000163 ± 1.7e-05 s⁻¹ | 
A64U U65G | 1.26e-05 ± 1e-06 s⁻¹ |  |  |  |  |  | 
A14C U56A | 0.00449 ± 0.0013 s⁻¹ | 0.000133 ± 2.8e-05 s⁻¹ | 0.000559 ± 6.3e-05 s⁻¹ | 0.00196 ± 0.00028 s⁻¹ | 3990 ± 1600 µM | 0.00318 ± 0.00032 s⁻¹ | 7.03e-05 ± 9e-06 s⁻¹
